Reference: US20240239870A1 (published 2024)

Key:
[1] = target: T1, human PCSK9 (proprotein convertase subtilisin kexin type 9) (human, UniProt Q8NBP7 31-692, biotinylated in the BLI assay (site not stated)); assay: ITC, 37 C
T1 construct: Immobilized directly (SPR), biotinylated on streptavidin tips (BLI), recombinant from baculovirus (FRET); also called hPCSK9

[2] = target: T1, human PCSK9 (proprotein convertase …); assay: ITC, 37 C, average of 3 experiments
Procedure: Solution phase binding was measured in 25 mM HEPES, pH 7.41, 150 mM NaCl at 37° C.

T1 sequence (Q8NBP7 31-692 limits assumed): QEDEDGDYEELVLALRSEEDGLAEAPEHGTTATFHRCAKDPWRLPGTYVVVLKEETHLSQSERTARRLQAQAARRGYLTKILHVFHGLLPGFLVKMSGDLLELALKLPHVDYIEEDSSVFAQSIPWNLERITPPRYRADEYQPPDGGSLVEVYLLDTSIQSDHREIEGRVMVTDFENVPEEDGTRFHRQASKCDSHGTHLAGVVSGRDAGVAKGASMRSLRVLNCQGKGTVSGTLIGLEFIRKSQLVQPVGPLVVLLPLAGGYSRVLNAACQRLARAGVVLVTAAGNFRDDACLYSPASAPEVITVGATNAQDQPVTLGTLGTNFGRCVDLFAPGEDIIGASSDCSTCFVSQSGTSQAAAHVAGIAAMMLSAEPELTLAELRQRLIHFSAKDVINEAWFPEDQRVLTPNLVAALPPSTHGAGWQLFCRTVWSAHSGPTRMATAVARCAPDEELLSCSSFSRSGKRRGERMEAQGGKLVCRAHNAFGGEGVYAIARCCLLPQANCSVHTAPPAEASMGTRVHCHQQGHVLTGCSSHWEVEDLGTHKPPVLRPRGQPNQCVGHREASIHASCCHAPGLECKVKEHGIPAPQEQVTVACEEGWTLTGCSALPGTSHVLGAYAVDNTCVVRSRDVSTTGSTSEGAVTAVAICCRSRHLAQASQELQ

B1: anti-PCSK9 Adnectin 2013E01 (designed binder)
chain: MGVSDVPRDLEVVAATPTSLLISWVPPSDDYGYYRITYGETGGNSPVQEFTVPIGKGTATISGLKPGVDYTITVYAVEFPWPHAGYYHRPISINYRTEIDKPSQHHHHHH
notes: also called ATI001081
ΔS [1]: -45.4 cal/mol ° C.

B2: ATI001174 [2013E01-non His tagged Cys mut], pegylated (designed binder)
chain: MGVSDVPRDLEVVAATPTSLLISWVPPSDDYGYYRITYGETGGNSPVQEFTVPIGKGTATISGLKPGVDYTITVYAVEFPWPHAGYYHRPISINYRTEIEKPCQ
modifications: pegylated via the cysteine of the EIEKPCQ tail (asterisk in Table 5)
notes: PEGylated, non His tagged cysteine mutant of 2013E01; also called ATI1174
ΔS [2]: -55.8 cal/mol ° C.
